Assay: soluble on expression in E. coli; label from the status in PepcDB or PDB records

| Sequence | soluble on expression in E. coli |
| --- | --- |
| MGSDKIHHHHHHMSQDVPGNLLDEIRILRSPKGYLYAGLPKFRALFGRDSIISSIQLIDLFPDIAQNTVIYLKDLQGRKLDYSIGEYPGKILHEYYDDEKIFLDRKRSIPWLNSRINYFSVDSTPLFILLIKNLFLRNLIDIEQFKDSIMMAMQFLIAYSSSDGLITYDKALLGAGLMSQSWRDGVGDIMDRLKSPVATVGVQGYFYESADFVLNLFPDSLIEESLPDLKDFYSKMREILENKFWLEETGYYGLAVDGDGVIEQAATSDPGHLIGSGILTRSRERDVIDRLFESDLLTDYGIRTLSAKDPRFDPKAYQRGSIWPQDNWIIADGIKRRGYLKEYRELRERLIAAYEYYGRMPEYFGVDRYGKIMDLSKLRIKPCYPQAWSTGAIINFVTFK | not soluble |
| MTNVQEQDKRKGGRPPTGRVRKLSKSVTVKFSKPSYEALKLRARKANRKLAEYIRESALNGEVVSGHNAETVAIAKNLIGMANNLNQLANLSHQRGFHETHVYVVDLLRRLKEILDEYRQASYKPKPSSMGRKEDTT | not soluble |
| IGPVQYHIGGTITYTTNKLIDLGATSVLKSGFVGKQQGYPLNSYFGLRYVGKIQTQEELEKYKYYYLDGNGIGMQDNLRLGDHMFEDVNGDGKLDQNDYVYLGTDDPKLSYSINIGLEWKGFDLSAIFQGVGRRTVFRGGEGNETWRVPMSAIYLNTTTQSIGNTWNPENRNAYYPSYTSIGSINNYNYQCSSWSVENGAYLRLKNLTLGYTLPASWLAKTNAISKLRIYFTGADLWEHSKLRDGWDPEASRKTKDLGRYPFNRTFTVGVNATF | not soluble |
| MRETHLRSILHTIPDAMIVIDGHGIIQLFSTAAERLFGWSELEAIGQNVNILMPEPDRSRHDSYISRYRTTSDPHIIGIGRIVTGKRRDGTTFPMHLSIGEMQSGGEPYFTGFVRDLTEHQQTQARLQELQ | soluble |
| MKKWWLAAVVAMIAVGGCAKEETEQKQSLQGANLLRTQTSGTAKHAELNQGPAERAASYLRGRDDVRDVVAVNSEDRLLIAYQIPHMKRWSRKQIEKDIDQKLRDLFPGYDVVSSSDLKIFWKTKELKANMDNRRWDERKVNREIRRIEKLSKEQT | not soluble |
| MALNFLSYDDDFCGYCGAILELPAQAPATVSCKVCSTRWAVKERVDQVVSRVEKIYERTVADTDGIENDESADAVVDHICTKCGHSKASYSTMQTRSADEGQTVFYTCLKCKKKDIEYS | not soluble |
| MTQHFPTRQLRFFLTAPTPCPYLPGREERKVFAHLPLSDGPIVNDSLTQVGFRRSQNIAYRPACETCRACQSARAPATEYILSRSERKILGRNDDLERHLVEAEATLEQFELLRRYLLTRHADGGMAEMTWPDYVAMVEDTAVRTHLIEYRRKSLDRGPGDLVACVLVDVLADGLSLVYSFYEPDQPRRSLGSFIILDHIVQAQQNALPYVYLGYWVPGSEKMAYKARFSPLEILKPGGWSLMSARERGARPPRGPGALKDACDLPLSDAQPADIEDLDLEHHHHHH | not soluble |
| MSQLSPKNKNDLRQCVLYEFIDGKPVFEAYKSFCDVIGDSCMDYVDFEFWFMRFANGNLNLDFNFDKSSSLSIFNIPIEILVKIMNELDWVSRLSMRQVSRAFRSIVDEESKMPKSLSFGFYDDTVFLQYDDSCVKYKDLEEEGHDDKIDIALFDFGVTLINPRLKLDYFEVLIDAKHGLDIDSDKCFKSLEALLKARNLPLPVKNVNIETNSGYEMNHAKNIIPYLKSGVLEKIVTNCDSSSFENIEIMKEIVELDQWKQAKHLEIDSLVKIPIENFLHFEHFELFFEHLCFQDVKERLLESSNFRHCTLQVMNSFDLEELAANFGIQYMGDDEGIRQTTFYEISTNSLEMTMFLDFVTFDRKF | not soluble |
| MRMKKLTTLISAALLSTSVSFVAQAQDTVAIVLSTLNNPFFVTMKDGAEAKAKELGYNLIVLDSQNDPSKELSNVEDLTVRGVKAILINPTDSDAVSNAIRIANRSKIPVLTLDRGASRGEVVSHIASDNVVGGEMAGHFIEAKIGSDAKVIQLEGIAGTSAARERGEGFMNAVKGSKMQLLASQPADFDRTKGLNVMENLLAANPDVQAVFAQNDEMALGALRAIQASGKSVMIVGFDGTDDGIAAVERGQLAATVAQQPDMIGAIGIETADKMLKGEKVEAYIPVALKVIAK | not soluble |

From the DeepSol protein solubility set
